Target: human EGFR, C-terminal eGFP-tagged, on CHO-K1 cells (human, UniProt P00533 25-1210)
Test: cell-based or functional assay

| EC50 CHO-K1 EGFR Low (nM); T cell activation bioassay, luciferase [nM] | EC50 CHO-K1 EGFR Med (nM); T cell activation bioassay, luciferase [nM] | Binder |
| --- | --- | --- |
| 1.67 | 0.0606 | GOMP001_bsAb_050 (bispecific antibody, human IgG1, kappa, L234A L235A) heavy 1: QVQLVESGGGVVQPGRSLRLSCAASGFTFSTYGMHWVRYAPGKGLEWVAVIWYDGSHKYYADRVKGRFTISRDNSKKTLYLQMNSLRAEDTGIYYCARTGISGNMSYFYFDHWGRGILVTVSSASTKGPSVFPLAPSSKSTSGGTAALGCLVKDYFPEPVTVSWNSGALTSGVHTFPAVLQSSGLYSLSSVVTVPSSSLGTQTYICNVNHKPSNTKVDKKVEPKSCDKTHTCPPCPAPEAAGGPSVFLFPPKPKDTLMISRTPEVTCVVVDVSHEDPEVKFNWYVDGVEVHNAKTKPREEQYNSTYRVVSVLTVLHQDWLNGKEYKCKVSNKALPAPIEKTISKAKGQPRRPRVYTLPPSREEMTKNQVSLVCLVKGFYPSDIAVEWESNGQPENNYKTTPPVLDSDGSFFLYSVLTVDKSRWQQGNVFSCSVMHEALHNHYTQKSLSLSPG light 1: not shown heavy 2: QVQLVQSGAEVKKPGASVKVSCKASGYTFTSHWMHWVRYAPGQGLEWIGEFNPSNGRTNYNEKFKSKATMTVDTSTNTAYMELSSLRSEDTAVYYCASRDYDYDGRYFDYWGRGTLVTVSSASTKGPSVFPLAPSSKSTSGGTAALGCLVKDYFPEPVTVSWNSGALTSGVHTFPAVLQSSGLYSLSSVVTVPSSSLGTQTYICNVNHKPSNTKVDKKVEPKSCDKTHTCPPCPAPEAAGGPSVFLFPPKPKDTLMISRTPEVTCVVVDVSHEDPEVKFNWYVDGVEVHNAKTKPREEQYNSTYRVVSVLTVLHQDWLNGKEYKCKVSNKALPAPIEKTISKAKGQPRRPRVYTLPPSREEMTKNQVSLVCLVKGFYPSDIAVEWESNGQPENNYKTTPPVLDSDGSFFLYSVLTVDKSRWQQGNVFSCSVMHEALHNHYTQKSLSLSPG light 2: DIQMTQSPSSLSASVGDRVTITCSASSSVTYMYWYQRKPGDAPKLLIYDTSNLASGVPSRFSGSGSGTDYTFTISSLQPEDIATYYCQQWSSHIFTFGQGTKVEIKRTVAAPSVFIFPPSDEQLKSGTASVVCLLNNFYPREAKVQWKVDNALQSGNSQESVTEQDSKDSTYSLSSTLTLSKADYEKHKVYACEVTHQGLSSPVTKSFNRGEC |
| 0.119 | 0.0139 | GOMP001_bsAb_055 (bispecific antibody, human IgG1, kappa, L234A L235A) heavy 1: QVQLVQSGAEVKKPGASVKVSCKASGYTFTSHWMHWVRKAPGQGLEWIGEFNPSNGRTNYNEEFKSKATMTVDTSTNTAYMELSSLRSEDTAVYYCASRDYDYDGRYFDYWGQGTLVTVSSASTKGPSVFPLAPSSKSTSGGTAALGCLVADYFPEPVTVSWNSGALTSGVHTFPAVLQSSGLYSLSSVVTVPSSSLGTQTYICNVNHKPSNTKVDEKVEPKSCDKTHTCPPCPAPEAAGGPSVFLFPPKPKDTLMISRTPEVTCVVVDVSHEDPEVKFNWYVDGVEVHNAKTKPREEQYNSTYRVVSVLTVLHQDWLNGKEYKCKVSNKALPAPIEKTISKAKGQPREPQVYTLPPSREEMTDNQVSLTCLVKGFYPSDIAVEWESNGQPENNYKTTPPVLMSDGSFFLASKLTVDKSRWQQGNVFSCSVMHEALHNHYTQKSLSLSPG light 1: RIQMTQSPSSLSASVGDRVTITCSASSSVTYMYWYQDKPGKAPKLLIYDTSNLASGVPSRFSGSGSGTDYTFTISSLQPEDIATYYCQQWSSHIFTFGQGTKVEIKRTVAAPSVFIFPPSDKQLKSGTARVVCLLNNFYPREAKVQWKVDNALQSGNSQESVTEQDSKDSTYSLSSTLTLSKADYEKHKVYACEVTHQGLSSPVTKSFNRGEC heavy 2: EVNLVESGGGLVQPGRSLRLSCAASGFTFDDYTMHWVRYVPGKGLEWVSNISWNSGSLGYADRVKGRFTISRDNAKDSLYLQMNSLRVEDTALYYCAKDSSGYGHYNSYYMDVWGRGTTVTVSSASTKGPSVFPLAPSSKSTSGGTAALGCLVKDYFPEPVTVSWNSGALTSGVHTFPAVLQSSGLYSLSSVVTVPSSSLGTQTYICNVNHKPSNTKVDKKVEPKSCDKTHTCPPCPAPEAAGGPSVFLFPPKPKDTLMISRTPEVTCVVVDVSHEDPEVKFNWYVDGVEVHNAKTKPREEQYNSTYRVVSVLTVLHQDWLNGKEYKCKVSNKALPAPIEKTISKAKGQPRRPRVYTLPPSREEMTKNQVSLVCLVKGFYPSDIAVEWESNGQPENNYKTTPPVLDSDGSFFLYSVLTVDKSRWQQGNVFSCSVMHEALHNHYTQKSLSLSPG light 2: DIQMTQSPSSLSASVGDRVTITCRASQSIRNYLNWYQRKPGDAPKVLIYSASSLQSGVPSRFSGSGSGTDFTLTISSLQPEDFASFYCQQTYSTPITFGQGTRLEIKRTVAAPSVFIFPPSDEQLKSGTASVVCLLNNFYPREAKVQWKVDNALQSGNSQESVTEQDSKDSTYSLSSTLTLSKADYEKHKVYACEVTHQGLSSPVTKSFNRGEC |
| 0.0291 | 0.00412 | GOMP001_bsAb_056 (bispecific antibody, human IgG1, kappa, L234A L235A) heavy 1: EVNLVESGGGLVQPGRSLRLSCAASGFTFDDYTMHWVRYVPGKGLEWVSNISWNSGSLGYADRVKGRFTISRDNAKDSLYLQMNSLRVEDTALYYCAKDSSGYGHYNSYYMDVWGRGTTVTVSSASTKGPSVFPLAPSSKSTSGGTAALGCLVKDYFPEPVTVSWNSGALTSGVHTFPAVLQSSGLYSLSSVVTVPSSSLGTQTYICNVNHKPSNTKVDKKVEPKSCDKTHTCPPCPAPEAAGGPSVFLFPPKPKDTLMISRTPEVTCVVVDVSHEDPEVKFNWYVDGVEVHNAKTKPREEQYNSTYRVVSVLTVLHQDWLNGKEYKCKVSNKALPAPIEKTISKAKGQPRRPRVYTLPPSREEMTKNQVSLVCLVKGFYPSDIAVEWESNGQPENNYKTTPPVLDSDGSFFLYSVLTVDKSRWQQGNVFSCSVMHEALHNHYTQKSLSLSPG light 1: DIQMTQSPSSLSASVGDRVTITCRASQSIRNYLNWYQRKPGDAPKVLIYSASSLQSGVPSRFSGSGSGTDFTLTISSLQPEDFASFYCQQTYSTPITFGQGTRLEIKRTVAAPSVFIFPPSDEQLKSGTASVVCLLNNFYPREAKVQWKVDNALQSGNSQESVTEQDSKDSTYSLSSTLTLSKADYEKHKVYACEVTHQGLSSPVTKSFNRGEC heavy 2: QVQLVQSGAEVKKPGASVKVSCKASGYTFTSHWMHWVRYAPGQGLEWIGEFNPSNGRTNYNEKFKSKATMTVDTSTNTAYMELSSLRSEDTAVYYCASRDYDYDGRYFDYWGRGTLVTVSSASTKGPSVFPLAPSSKSTSGGTAALGCLVKDYFPEPVTVSWNSGALTSGVHTFPAVLQSSGLYSLSSVVTVPSSSLGTQTYICNVNHKPSNTKVDKKVEPKSCDKTHTCPPCPAPEAAGGPSVFLFPPKPKDTLMISRTPEVTCVVVDVSHEDPEVKFNWYVDGVEVHNAKTKPREEQYNSTYRVVSVLTVLHQDWLNGKEYKCKVSNKALPAPIEKTISKAKGQPRRPRVYTLPPSREEMTKNQVSLVCLVKGFYPSDIAVEWESNGQPENNYKTTPPVLDSDGSFFLYSVLTVDKSRWQQGNVFSCSVMHEALHNHYTQKSLSLSPG light 2: DIQMTQSPSSLSASVGDRVTITCSASSSVTYMYWYQRKPGDAPKLLIYDTSNLASGVPSRFSGSGSGTDYTFTISSLQPEDIATYYCQQWSSHIFTFGQGTKVEIKRTVAAPSVFIFPPSDEQLKSGTASVVCLLNNFYPREAKVQWKVDNALQSGNSQESVTEQDSKDSTYSLSSTLTLSKADYEKHKVYACEVTHQGLSSPVTKSFNRGEC |
| 1.23 | 0.0922 | GOMP001_bsAb_051 (bispecific antibody, human IgG1, kappa, L234A L235A) heavy 1: QVQLVQSGAEVKKPGASVKVSCKASGYTFTSHWMHWVRKAPGQGLEWIGEFNPSNGRTNYNEEFKSKATMTVDTSTNTAYMELSSLRSEDTAVYYCASRDYDYDGRYFDYWGQGTLVTVSSASTKGPSVFPLAPSSKSTSGGTAALGCLVADYFPEPVTVSWNSGALTSGVHTFPAVLQSSGLYSLSSVVTVPSSSLGTQTYICNVNHKPSNTKVDEKVEPKSCDKTHTCPPCPAPEAAGGPSVFLFPPKPKDTLMISRTPEVTCVVVDVSHEDPEVKFNWYVDGVEVHNAKTKPREEQYNSTYRVVSVLTVLHQDWLNGKEYKCKVSNKALPAPIEKTISKAKGQPREPQVYTLPPSREEMTDNQVSLTCLVKGFYPSDIAVEWESNGQPENNYKTTPPVLMSDGSFFLASKLTVDKSRWQQGNVFSCSVMHEALHNHYTQKSLSLSPG light 1: RIQMTQSPSSLSASVGDRVTITCSASSSVTYMYWYQDKPGKAPKLLIYDTSNLASGVPSRFSGSGSGTDYTFTISSLQPEDIATYYCQQWSSHIFTFGQGTKVEIKRTVAAPSVFIFPPSDKQLKSGTARVVCLLNNFYPREAKVQWKVDNALQSGNSQESVTEQDSKDSTYSLSSTLTLSKADYEKHKVYACEVTHQGLSSPVTKSFNRGEC heavy 2: LRSDDTAVYYCARGVRGNYYYYYMDVWGRGTTVTVSSASTKGPSVFPLAPSSKSTSGGTAALGCLVKDYFPEPVTVSWNSGALTSGVHTFPAVLQSSGLYSLSSVVTVPSSSLGTQTYICNVNHKPSNTKVDKKVEPKSCDKTHTCPPCPAPEAAGGPSVFLFPPKPKDTLMISRTPEVTCVVVDVSHEDPEVKFNWYVDGVEVHNAKTKPREEQYNSTYRVVSVLTVLHQDWLNGKEYKCKVSNKALPAPIEKTISKAKGQPRRPRVYTLPPSREEMTKNQVSLVCLVKGFYPSDIAVEWESNGQPENNYKTTPPVLDSDGSFFLYSVLTVDKSRWQQGNVFSCSVMHEALHNHYTQKSLSLSPG light 2: EIVLTQSPDFQSVTPKEKVTITCRASQSIGSKLHWYQRKPDDSPKLLIKYASQSFSGVPSRFSGSGSGTDFNLTINSLEAEDAATFYCHQSSGLPYTFGQGTKLEIKRTVAAPSVFIFPPSDEQLKSGTASVVCLLNNFYPREAKVQWKVDNALQSGNSQESVTEQDSKDSTYSLSSTLTLSKADYEKHKVYACEVTHQGLSSPVTKSFNRGEC |

— patent publication US20230295310A1 (ABCELLERA BIOLOGICS, published 2023)
